From US10562936B2, “Ligands for integrin αvβ6, synthesis and uses thereof” (Technische Universitat Munchen, priority 2015, dated 2020)
Where two headings read alike, the source gives them in different places. Square brackets hold non-standard residues; d marks the D form. Peptide text beside a SMILES is read from it. NMeK = CN[C@@H](CCCCN)C(=O)O; dNMeK = CN[C@H](CCCCN)C(=O)O; Sar = CNCC(=O)O

Tests used:
[1] = molecular target: T1, αvβ3 (Homo sapiens, UniProt P05106+P06756); test: Solid-phase integrin binding assay, αvβ3 (coated Vitronectin)
T1 construct: using coated extracellular matrix proteins and soluble integrins
T1 sequence (P06756 31-992 limits assumed): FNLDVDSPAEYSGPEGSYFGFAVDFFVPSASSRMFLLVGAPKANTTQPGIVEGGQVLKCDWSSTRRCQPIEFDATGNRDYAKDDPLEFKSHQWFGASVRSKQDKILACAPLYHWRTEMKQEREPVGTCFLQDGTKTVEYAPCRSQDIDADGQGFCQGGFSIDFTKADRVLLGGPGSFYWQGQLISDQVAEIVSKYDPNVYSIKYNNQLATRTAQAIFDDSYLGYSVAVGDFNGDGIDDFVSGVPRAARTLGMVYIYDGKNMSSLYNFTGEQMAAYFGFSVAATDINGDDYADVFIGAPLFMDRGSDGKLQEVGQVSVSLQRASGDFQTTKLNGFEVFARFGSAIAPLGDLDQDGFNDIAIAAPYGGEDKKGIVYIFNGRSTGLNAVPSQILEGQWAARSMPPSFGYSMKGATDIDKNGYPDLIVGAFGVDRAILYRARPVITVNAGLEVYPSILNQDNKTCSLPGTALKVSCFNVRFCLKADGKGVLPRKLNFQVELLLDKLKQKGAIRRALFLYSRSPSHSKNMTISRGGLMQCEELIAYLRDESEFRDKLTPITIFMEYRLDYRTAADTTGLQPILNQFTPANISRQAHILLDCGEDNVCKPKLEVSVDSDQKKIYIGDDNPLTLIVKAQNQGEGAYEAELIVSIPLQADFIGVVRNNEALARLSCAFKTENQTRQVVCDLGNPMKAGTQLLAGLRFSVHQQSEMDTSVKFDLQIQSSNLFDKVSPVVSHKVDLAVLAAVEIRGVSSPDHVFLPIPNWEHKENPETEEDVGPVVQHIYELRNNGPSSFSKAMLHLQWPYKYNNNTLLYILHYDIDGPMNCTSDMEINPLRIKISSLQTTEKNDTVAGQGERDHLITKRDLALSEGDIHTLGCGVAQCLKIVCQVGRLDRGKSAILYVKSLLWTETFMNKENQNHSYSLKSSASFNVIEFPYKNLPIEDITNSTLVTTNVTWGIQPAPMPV
T1 sequence (P05106 27-718 limits assumed): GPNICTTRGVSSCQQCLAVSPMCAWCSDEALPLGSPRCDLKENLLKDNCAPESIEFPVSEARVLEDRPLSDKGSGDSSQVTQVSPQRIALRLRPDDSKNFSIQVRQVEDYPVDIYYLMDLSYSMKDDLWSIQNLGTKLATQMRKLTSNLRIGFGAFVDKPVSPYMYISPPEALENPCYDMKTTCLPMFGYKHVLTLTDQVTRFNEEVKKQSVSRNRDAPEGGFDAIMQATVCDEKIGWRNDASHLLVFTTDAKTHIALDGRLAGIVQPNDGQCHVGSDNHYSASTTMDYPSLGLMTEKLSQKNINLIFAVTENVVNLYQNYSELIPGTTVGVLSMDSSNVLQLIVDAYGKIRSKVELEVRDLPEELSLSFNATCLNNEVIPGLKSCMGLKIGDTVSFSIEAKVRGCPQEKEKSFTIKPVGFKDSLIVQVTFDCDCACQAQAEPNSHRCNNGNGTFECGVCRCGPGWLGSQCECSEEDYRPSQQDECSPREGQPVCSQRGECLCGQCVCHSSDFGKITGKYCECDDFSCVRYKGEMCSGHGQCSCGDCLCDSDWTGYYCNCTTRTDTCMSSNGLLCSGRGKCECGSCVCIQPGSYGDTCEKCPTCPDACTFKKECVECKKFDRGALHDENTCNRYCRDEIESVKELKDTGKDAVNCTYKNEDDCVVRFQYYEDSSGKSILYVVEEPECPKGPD
Protocol: (§1) The activity and selectivity of integrin ligands were determined by a solid-phase binding assay according to the previously reported protocols using coated extracellular matrix proteins and soluble integrins: Fibronectin (Fn) for α5β1, latent activating protein (LAP) for αvβ6 and αvβ8, Vitronectin (Vn) for αvβ3 and αvβ5, Fibrinogen (Fbg) for aIIbβ3.

[2] = molecular target: αvβ6 (Homo sapiens, UniProt P06756+P18564); test: Solid-phase integrin binding assay, αvβ6 (coated LAP, soluble integrin); design: using coated extracellular matrix proteins and soluble integrins
Protocol: as §1

[3] = molecular target: T2, αvβ5 (Homo sapiens, UniProt P06756+P18084); test: Solid-phase integrin binding assay, αvβ5 (coated Vitronectin)
T2 construct: using coated extracellular matrix proteins and soluble integrins
Protocol: as §1

[4] = molecular target: T3, αIIbβ3 (Homo sapiens, UniProt P05106+P08514); test: Solid-phase integrin binding assay, αIIbβ3 (coated Fibrinogen)
T3 construct: using coated extracellular matrix proteins and soluble integrins
T3 sequence (P08514 32-1039): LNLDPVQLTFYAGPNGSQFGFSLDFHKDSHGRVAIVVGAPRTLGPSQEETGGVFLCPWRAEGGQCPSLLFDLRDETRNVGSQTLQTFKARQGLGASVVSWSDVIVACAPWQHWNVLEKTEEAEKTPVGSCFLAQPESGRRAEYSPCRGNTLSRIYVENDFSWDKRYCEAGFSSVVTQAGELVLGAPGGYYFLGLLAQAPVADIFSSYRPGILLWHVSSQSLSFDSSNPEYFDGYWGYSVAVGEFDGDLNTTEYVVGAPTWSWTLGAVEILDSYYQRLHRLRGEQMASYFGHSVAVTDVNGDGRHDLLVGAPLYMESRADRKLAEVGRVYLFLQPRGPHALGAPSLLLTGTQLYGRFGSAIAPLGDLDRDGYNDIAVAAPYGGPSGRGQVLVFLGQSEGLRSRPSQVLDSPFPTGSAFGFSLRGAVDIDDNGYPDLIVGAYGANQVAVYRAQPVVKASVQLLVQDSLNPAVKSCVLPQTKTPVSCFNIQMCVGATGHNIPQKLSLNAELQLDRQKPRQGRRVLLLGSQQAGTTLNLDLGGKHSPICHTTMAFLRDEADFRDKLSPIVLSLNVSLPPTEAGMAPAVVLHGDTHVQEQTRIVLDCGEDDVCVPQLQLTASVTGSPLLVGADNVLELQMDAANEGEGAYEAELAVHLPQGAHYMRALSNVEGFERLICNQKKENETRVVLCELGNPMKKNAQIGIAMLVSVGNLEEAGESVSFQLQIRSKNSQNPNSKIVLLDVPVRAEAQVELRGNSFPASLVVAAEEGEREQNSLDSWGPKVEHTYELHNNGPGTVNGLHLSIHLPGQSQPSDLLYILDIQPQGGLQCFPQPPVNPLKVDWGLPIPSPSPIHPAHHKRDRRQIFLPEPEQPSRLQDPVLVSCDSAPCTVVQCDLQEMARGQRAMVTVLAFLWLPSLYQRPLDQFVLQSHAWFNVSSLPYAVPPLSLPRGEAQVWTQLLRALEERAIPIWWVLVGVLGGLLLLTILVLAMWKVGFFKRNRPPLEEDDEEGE
T3 sequence (P05106 27-788): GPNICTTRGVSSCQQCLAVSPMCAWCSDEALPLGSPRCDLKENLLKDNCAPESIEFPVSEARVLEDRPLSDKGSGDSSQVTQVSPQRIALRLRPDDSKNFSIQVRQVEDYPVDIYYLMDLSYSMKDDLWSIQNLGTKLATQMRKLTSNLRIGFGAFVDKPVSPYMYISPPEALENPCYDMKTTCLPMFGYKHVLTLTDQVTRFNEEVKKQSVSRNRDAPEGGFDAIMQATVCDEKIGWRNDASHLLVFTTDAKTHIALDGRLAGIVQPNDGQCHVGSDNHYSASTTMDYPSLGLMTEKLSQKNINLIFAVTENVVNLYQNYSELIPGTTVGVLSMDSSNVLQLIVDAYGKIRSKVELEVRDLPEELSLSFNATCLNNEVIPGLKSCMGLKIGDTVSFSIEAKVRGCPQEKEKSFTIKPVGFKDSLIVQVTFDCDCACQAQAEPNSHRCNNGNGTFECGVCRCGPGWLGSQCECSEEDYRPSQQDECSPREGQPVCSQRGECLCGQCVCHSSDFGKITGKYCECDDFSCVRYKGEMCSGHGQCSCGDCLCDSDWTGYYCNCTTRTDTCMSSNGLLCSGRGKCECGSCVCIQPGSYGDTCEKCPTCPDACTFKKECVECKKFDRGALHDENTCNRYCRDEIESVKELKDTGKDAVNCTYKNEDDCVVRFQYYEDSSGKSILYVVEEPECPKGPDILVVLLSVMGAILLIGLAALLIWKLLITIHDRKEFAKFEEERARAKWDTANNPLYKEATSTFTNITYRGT
Protocol: as §1

[5] = molecular target: T4, integrin α5β1 (soluble integrin) (UniProt P08648 42-995; P05556 21-728); test: solid-phase binding assay, competition; coated fibronectin, soluble α5β1
T4 construct: Only 'soluble integrins' is said

[6] = molecular target: T5, integrin αvβ8 (soluble integrin) (UniProt P06756 31-992; P26012 43-684); test: solid-phase binding assay, competition; coated LAP, soluble αvβ8
T5 construct: Only 'soluble integrins' is said
T5 sequence (P06756 31-992, chain 1 of 2): as the sequence (P06756 31-992 limits assumed) above
T5 sequence (P26012 43-684, chain 2 of 2): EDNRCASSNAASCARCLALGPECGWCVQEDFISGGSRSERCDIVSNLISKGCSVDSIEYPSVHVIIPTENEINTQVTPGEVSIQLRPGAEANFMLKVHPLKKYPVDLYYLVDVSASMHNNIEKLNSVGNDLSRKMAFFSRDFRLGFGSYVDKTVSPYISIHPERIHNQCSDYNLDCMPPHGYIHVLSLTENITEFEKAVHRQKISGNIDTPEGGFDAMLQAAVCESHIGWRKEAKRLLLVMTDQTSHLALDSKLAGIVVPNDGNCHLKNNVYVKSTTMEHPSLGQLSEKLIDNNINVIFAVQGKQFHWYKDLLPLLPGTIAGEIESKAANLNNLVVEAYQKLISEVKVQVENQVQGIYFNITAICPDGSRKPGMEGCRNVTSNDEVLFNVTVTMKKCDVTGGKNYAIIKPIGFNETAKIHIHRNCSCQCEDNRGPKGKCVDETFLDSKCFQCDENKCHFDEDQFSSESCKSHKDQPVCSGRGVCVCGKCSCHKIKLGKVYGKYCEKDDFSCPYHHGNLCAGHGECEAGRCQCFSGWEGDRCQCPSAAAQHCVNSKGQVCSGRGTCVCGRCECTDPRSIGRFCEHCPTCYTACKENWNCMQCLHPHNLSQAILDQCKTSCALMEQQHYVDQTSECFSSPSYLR

[7] = molecular target: T6, integrin αvβ3 (soluble integrin) (UniProt P06756 31-992; P05106 27-718); test: solid-phase binding assay, competition; coated vitronectin, soluble αvβ3
T6 construct: Only 'soluble integrins' is said
T6 sequence (P06756 31-992, chain 1 of 2): as the sequence (P06756 31-992 limits assumed) above
T6 sequence (P05106 27-718, chain 2 of 2): as the sequence (P05106 27-718 limits assumed) above

[8] = molecular target: T6, integrin αvβ3 (soluble integrin); test: as above; remark: listed apart in the source
[9] = molecular target: T7, integrin αvβ6 (soluble integrin) (UniProt P06756 31-992; P18564 22-707); test: solid-phase binding assay, competition; coated LAP, soluble αvβ6
T7 construct: Only 'soluble integrins' is said
T7 sequence (P06756 31-992, chain 1 of 2): as the sequence (P06756 31-992 limits assumed) above
T7 sequence (P18564 22-707, chain 2 of 2): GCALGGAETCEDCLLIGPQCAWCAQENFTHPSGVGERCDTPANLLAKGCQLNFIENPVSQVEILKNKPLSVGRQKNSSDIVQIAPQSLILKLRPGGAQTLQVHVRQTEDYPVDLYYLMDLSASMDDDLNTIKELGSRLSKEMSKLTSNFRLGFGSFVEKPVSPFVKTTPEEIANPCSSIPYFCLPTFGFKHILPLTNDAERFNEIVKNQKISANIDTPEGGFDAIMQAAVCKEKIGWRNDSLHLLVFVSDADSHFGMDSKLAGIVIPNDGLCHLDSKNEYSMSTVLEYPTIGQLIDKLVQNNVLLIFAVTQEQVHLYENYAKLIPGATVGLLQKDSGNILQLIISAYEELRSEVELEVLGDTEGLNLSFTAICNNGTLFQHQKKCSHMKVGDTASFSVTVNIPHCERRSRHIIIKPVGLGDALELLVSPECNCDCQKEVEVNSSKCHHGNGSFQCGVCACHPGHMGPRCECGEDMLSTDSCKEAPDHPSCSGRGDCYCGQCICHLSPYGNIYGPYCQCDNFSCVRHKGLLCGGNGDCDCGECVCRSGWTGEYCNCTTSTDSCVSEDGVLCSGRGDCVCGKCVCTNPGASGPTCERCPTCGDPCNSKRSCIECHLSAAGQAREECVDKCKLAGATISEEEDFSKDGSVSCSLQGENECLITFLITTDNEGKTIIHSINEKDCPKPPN

[10] = solid-phase binding assay, Vitronectin coated, read-out: αvβ3, IC50
[11] = solid-phase binding assay, Vitronectin coated, read-out: αvβ5, IC50
[12] = solid-phase binding assay, Fibrinogen coated, read-out: αIIbβ3, IC50

CC(C)C[C@@H]1NC(=O)[C@H](CC(=O)O)NC(=O)CNC(=O)[C@H](CCCNC(=N)N)NC(=O)[C@H](C)NC(=O)[C@@H]2CCCN2C(=O)[C@H]2CCCN2C(=O)[C@H](CC(C)C)NC(=O)[C@H](C)NC1=O [Compound 4, A R G D L A L p P] (cyclo(ARGDLAL[dP]P))
IC50 [1, 10]: 106 nM | IC50 [2]: 3 nM | IC50 [3, 11]: > 1000 nM | IC50 [4, 12]: > 1000 nM

CC(=O)NCCCC[C@H]1C(=O)N[C@@H](Cc2ccccc2)C(=O)N[C@@H](CCCNC(=N)N)C(=O)NCC(=O)N[C@@H](CC(=O)O)C(=O)N[C@@H](CC(C)C)C(=O)N[C@@H](C)C(=O)N[C@@H](Cc2ccccc2)C(=O)N2CCC[C@@H]2C(=O)N1C [Compound 23, F R G D L A F p (NMe)K^[f]]
IC50 [1, 10]: 640 nM | IC50 [2]: 0.3 nM | IC50 [3, 11]: > 1000 nM | IC50 [4, 12]: > 1000 nM

CC(C)C[C@@H]1NC(=O)[C@H](CC(=O)O)NC(=O)CNC(=O)[C@H](CCCNC(=N)N)NC(=O)[C@H](C)NC(=O)[C@@H]2CCCN2C(=O)[C@H]2CCCN2C(=O)[C@H](CC(C)C)NC(=O)[C@H](C)NC(=O)[C@H](C)NC1=O [Compound 1, A R G D L A A L p P] (cyclo(RGDLAAL[dP]PA))
IC50 [1]: 76.7 nM | IC50 [2]: 8.3 nM | IC50 [3]: > 1000 nM | IC50 [4]: > 1000 nM

CC(C)C[C@@H]1NC(=O)[C@H](CC(=O)O)NC(=O)CNC(=O)[C@H](CCCNC(=N)N)NC(=O)[C@H](C)NC(=O)[C@@H]2CCCN2C(=O)[C@H]2CCCN2C(=O)[C@H](Cc2ccccc2)NC(=O)[C@H](C)NC1=O [Compound 10, A R G D L A F p P] (cyclo(ARGDLAF[dP]P))
IC50 [1, 10]: 104 nM | IC50 [2]: 0.67 nM

CC(C)C[C@@H]1NC(=O)[C@H](CC(=O)O)NC(=O)CNC(=O)[C@H](CCCNC(=N)N)NC(=O)[C@H](C)NC(=O)[C@@H]2CCCN2C(=O)[C@H]2CCCN2C(=O)[C@H](CCCCN)NC(=O)[C@H](C)NC1=O [Compound 11, A R G D L A K p P] (cyclo(ARGDLAK[dP]P))
IC50 [1, 10]: 302 nM | IC50 [2]: 1.51 nM | IC50 [3, 11]: > 1000 nM | IC50 [4, 12]: > 1000 nM

CC(C)C[C@@H]1NC(=O)[C@H](CC(=O)O)NC(=O)CNC(=O)[C@H](CCCNC(=N)N)NC(=O)[C@H](Cc2ccccc2)NC(=O)[C@@H]2CCCN2C(=O)[C@H]2CCCN2C(=O)[C@H](CC(C)C)NC(=O)[C@H](C)NC1=O [Compound 12, F R G D L A L p P] (cyclo(FRGDLAL[dP]P))
IC50 [1, 10]: > 1000 nM | IC50 [2]: 1.25 nM | IC50 [3, 11]: > 1000 nM | IC50 [4, 12]: > 1000 nM

CC(C)C[C@@H]1NC(=O)[C@H](CC(=O)O)NC(=O)CNC(=O)[C@H](CCCNC(=N)N)NC(=O)[C@H](C)NC(=O)[C@@H]2CCCN2C(=O)[C@H]2CCCN2C(=O)[C@H](CC(C)C)NC(=O)[C@@H](CC(=O)O)NC1=O [Compound 7, A R G D L d L p P] (cyclo(ARGDL[dD]L[dP]P))
IC50 [1, 10]: > 1000 nM

B1: Compound 4, cyclic peptide A R G D L A L p P (peptide)
peptide: cyclo(ARGDLAL[dP]P)
SMILES: CC(C)C[C@@H]1NC(=O)[C@H](CC(=O)O)NC(=O)CNC(=O)[C@H](CCCNC(=N)N)NC(=O)[C@H](C)NC(=O)[C@@H]2CCCN2C(=O)[C@H]2CCCN2C(=O)[C@H](CC(C)C)NC(=O)[C@H](C)NC1=O
notes: also called Cpd
IC50 [5]: 266 nM | IC50 [6]: 42.9 nM | IC50 [7]: 106 nM | IC50 [8]: 106 nM

B2: Compound 9, cyclic peptide A R G D F A L p P (peptide)
peptide: cyclo(ARGDFAL[dP]P)
SMILES: CC(C)C[C@@H]1NC(=O)[C@H](C)NC(=O)[C@H](Cc2ccccc2)NC(=O)[C@H](CC(=O)O)NC(=O)CNC(=O)[C@H](CCCNC(=N)N)NC(=O)[C@H](C)NC(=O)[C@@H]2CCCN2C(=O)[C@H]2CCCN2C1=O
notes: Comparative compound (*)
IC50 [7]: 65.2 nM | IC50 [9]: 63.4 nM

B3: Compound 12, cyclic peptide F R G D L A L p P (peptide)
peptide: cyclo(FRGDLAL[dP]P)
SMILES: CC(C)C[C@@H]1NC(=O)[C@H](CC(=O)O)NC(=O)CNC(=O)[C@H](CCCNC(=N)N)NC(=O)[C@H](Cc2ccccc2)NC(=O)[C@@H]2CCCN2C(=O)[C@H]2CCCN2C(=O)[C@H](CC(C)C)NC(=O)[C@H](C)NC1=O
notes: also called Cpd; 12
IC50 [5]: 254 nM | IC50 [6]: 127 nM

B4: Compound 2, cyclic peptide A R G D A A A L p P (peptide)
peptide: cyclo(ARGDAAAL[dP]P)
SMILES: CC(C)C[C@@H]1NC(=O)[C@H](C)NC(=O)[C@H](C)NC(=O)[C@H](C)NC(=O)[C@H](CC(=O)O)NC(=O)CNC(=O)[C@H](CCCNC(=N)N)NC(=O)[C@H](C)NC(=O)[C@@H]2CCCN2C(=O)[C@H]2CCCN2C1=O
notes: Comparative compound (*)
IC50 [9]: 320 nM

B5: Compound 3, cyclic peptide A R G D L A A A p P (peptide)
peptide: cyclo(ARGDLAAA[dP]P)
SMILES: CC(C)C[C@@H]1NC(=O)[C@H](CC(=O)O)NC(=O)CNC(=O)[C@H](CCCNC(=N)N)NC(=O)[C@H](C)NC(=O)[C@@H]2CCCN2C(=O)[C@H]2CCCN2C(=O)[C@H](C)NC(=O)[C@H](C)NC(=O)[C@H](C)NC1=O
notes: Comparative compound (*)
IC50 [9]: 15.4 nM

B6: Compound 5, cyclic peptide A R G D L L p P (peptide)
peptide: cyclo(ARGDLL[dP]P)
SMILES: CC(C)C[C@@H]1NC(=O)[C@H](CC(=O)O)NC(=O)CNC(=O)[C@H](CCCNC(=N)N)NC(=O)[C@H](C)NC(=O)[C@@H]2CCCN2C(=O)[C@H]2CCCN2C(=O)[C@H](CC(C)C)NC1=O
notes: Comparative compound (*)
IC50 [9]: 292 nM

B7: Compound 6, cyclic peptide A R G D L p P (peptide)
peptide: cyclo(ARGDL[dP]P)
SMILES: CC(C)C[C@@H]1NC(=O)[C@H](CC(=O)O)NC(=O)CNC(=O)[C@H](CCCNC(=N)N)NC(=O)[C@H](C)NC(=O)[C@@H]2CCCN2C(=O)[C@H]2CCCN2C1=O
notes: Comparative compound (*)
IC50 [9]: 417 nM

B8: Compound 7, cyclic peptide A R G D L d L p P (peptide)
peptide: cyclo(ARGDL[dD]L[dP]P)
SMILES: CC(C)C[C@@H]1NC(=O)[C@H](CC(=O)O)NC(=O)CNC(=O)[C@H](CCCNC(=N)N)NC(=O)[C@H](C)NC(=O)[C@@H]2CCCN2C(=O)[C@H]2CCCN2C(=O)[C@H](CC(C)C)NC(=O)[C@@H](CC(=O)O)NC1=O
notes: Comparative compound (*)
IC50 [9]: 148 nM

B9: Compound 13, cyclic peptide A R G D L A L p Sar (peptide)
peptide: cyclo(ARGDLAL[dP][Sar])
SMILES: CC(C)C[C@@H]1NC(=O)[C@H](CC(=O)O)NC(=O)CNC(=O)[C@H](CCCNC(=N)N)NC(=O)[C@H](C)NC(=O)CN(C)C(=O)[C@H]2CCCN2C(=O)[C@H](CC(C)C)NC(=O)[C@H](C)NC1=O
IC50 [7]: 87.7 nM | IC50 [9]: 8.1 nM

B10: Compound 15, cyclic peptide A R G D L A L p (NMe)K (peptide)
peptide: cyclo(ARGDLAL[dP][NMeK])
SMILES: CC(C)C[C@@H]1NC(=O)[C@H](CC(=O)O)NC(=O)CNC(=O)[C@H](CCCNC(=N)N)NC(=O)[C@H](C)NC(=O)[C@H](CCCCN)N(C)C(=O)[C@H]2CCCN2C(=O)[C@H](CC(C)C)NC(=O)[C@H](C)NC1=O
IC50 [7]: 415 nM | IC50 [9]: 4.3 nM

B11: Compound 17, cyclic peptide A R G D L A F p (NMe)K (peptide)
peptide: cyclo(ARGDLAF[dP][NMeK])
SMILES: CC(C)C[C@@H]1NC(=O)[C@H](CC(=O)O)NC(=O)CNC(=O)[C@H](CCCNC(=N)N)NC(=O)[C@H](C)NC(=O)[C@H](CCCCN)N(C)C(=O)[C@H]2CCCN2C(=O)[C@H](Cc2ccccc2)NC(=O)[C@H](C)NC1=O
IC50 [7]: 143 nM | IC50 [9]: 0.7 nM

FRGDLAYXX (head-to-tail cyclic; D-Pro (p) at position 8; N-methyl-Lys at position 9) [Compound 19, cyclic peptide F R G D L A Y p (NMe)K]
IC50 [7]: 685 nM | IC50 [9]: 0.39 nM

B12: Compound 20, cyclic peptide F R G D L A W p (NMe)K (peptide)
peptide: cyclo(FRGDLAW[dP][NMeK])
SMILES: CC(C)C[C@@H]1NC(=O)[C@H](CC(=O)O)NC(=O)CNC(=O)[C@H](CCCNC(=N)N)NC(=O)[C@H](Cc2ccccc2)NC(=O)[C@H](CCCCN)N(C)C(=O)[C@H]2CCCN2C(=O)[C@H](Cc2c[nH]c3ccccc23)NC(=O)[C@H](C)NC1=O
IC50 [7]: 204 nM | IC50 [9]: 0.12 nM

YRGDLAFXX (head-to-tail cyclic; D-Pro (p) at position 8; N-methyl-Lys at position 9) [Compound 21, cyclic peptide Y R G D L A F p (NMe)K]
IC50 [7]: 432 nM | IC50 [9]: 0.4 nM

B13: Compound 22, cyclic peptide W R G D L A F p (NMe)K (peptide)
peptide: cyclo(WRGDLAF[dP][NMeK])
SMILES: CC(C)C[C@@H]1NC(=O)[C@H](CC(=O)O)NC(=O)CNC(=O)[C@H](CCCNC(=N)N)NC(=O)[C@H](Cc2c[nH]c3ccccc23)NC(=O)[C@H](CCCCN)N(C)C(=O)[C@H]2CCCN2C(=O)[C@H](Cc2ccccc2)NC(=O)[C@H](C)NC1=O
IC50 [7]: 645 nM

B14: Compound 14, cyclic peptide A R G D L A L Sar P (peptide)
peptide: cyclo(ARGDLAL[Sar]P)
SMILES: CC(C)C[C@@H]1NC(=O)[C@H](CC(=O)O)NC(=O)CNC(=O)[C@H](CCCNC(=N)N)NC(=O)[C@H](C)NC(=O)[C@@H]2CCCN2C(=O)CN(C)C(=O)[C@H](CC(C)C)NC(=O)[C@H](C)NC1=O
notes: Comparative compound (*)
IC50 [7]: 85.1 nM | IC50 [9]: 24.2 nM

cyclo(ARGDLAL[dNMeK]P) (Comparative compound (*)) [Compound 16, cyclic peptide A R G D L A L (NMe)k P]
IC50 [7]: 50.4 nM | IC50 [9]: 11.4 nM
